# Results: US20230016112A1 (IBIO, published 2023)
# T1: full-length CD25 (human, UniProt P01589 22-186, limits assumed)
# T1 construct: The assays used soluble 'full-length CD25'; also called Hu CD25; IL-2 receptor alpha chain
# T1 chain: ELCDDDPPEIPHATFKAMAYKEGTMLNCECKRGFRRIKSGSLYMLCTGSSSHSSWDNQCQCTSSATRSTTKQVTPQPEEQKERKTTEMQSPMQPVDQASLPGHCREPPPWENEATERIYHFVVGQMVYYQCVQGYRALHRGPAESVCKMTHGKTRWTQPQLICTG
# Biological target: T1, full-length CD25
# Assay: Octet biolayer interferometry, human IgG1 against CD25
row,Binder,Kd
1,"YU390-B12 (antibody, Tested as full-length human IgG1) scFv: PGRSLRLSCAASGFTFSSYGMHWVRQAPGKGLEWVAVISYDGSNKYYADSVKGRFTISRDNSKNTLYLQMNSLRAEDTAVYYCAKELLEGAFDIWGQGTMVTVSSSYVLTQPPSLSVAPGQTARITCGGDNIETKSVHWYQQRPGQAPVLVVYDDDDRPSGIPERFSGSNSGNTATLTISRVEAGDEADYYCQVWDSSSGHREVFGGGTKLTVL",13.7 nM
2,"YU403-G05 (antibody, Tested as full-length human IgG1) scFv: PSGDLSLTCDVSGGSISRSNWWIWVRQPPGKGLEWIGEIYHTGSTNYNPSLKRRVTISVDKSKNQFSLNLSSVTAADTAVYYCARGKGSYAFDIWGLGTMVTVSSVLTQPHSVSESPGKTVTISCTGSGGNIARNYVQWYQHRPGRAPSTVIYEDDRRPSGVPDRFSGSTDISSNSASLTISGLKTEDEADYYCQSYDGNNHMVFGGGTRVTVL",31.9 nM
3,"YU392-A09 (antibody, Tested as full-length human IgG1) scFv: PGATVKISCKVSGYTFTDYYMHWVQQAPGKGLEWMGLVDPEDGETIYAEKFQGRVTITADTSTDTAYMELSSLRSEDTAVYYCATEGRYGMDVWGQGTTVTVSSQAVLTQPPSVSGTPGQRVTISCSGNNFNIGNNLVYWYQQLPGTAPKLLIYANDERPSGVPDRFSGSKSGTSASLAISGLRSEDDADYYCATWDDSLSGVVFGGGTKLTAL",12.4 nM
4,"YU392-B11 (antibody, Tested as full-length human IgG1) scFv: PGATVKISCKVSGYTFTDYYMHWVQQAPGKGLEWMGLVDPEDGETIYAEKFQGRVTITADTSTDTAYMELSSLRSEDTAVYYCAVEGGRAPGTYYYDSSGLAYWGQGTLVTVSSQAGLTQPPSASGTPGQRVTISCSGSSSNIGSNYVYWYQQLPGTAPKLLIYSNNQRPSGVPDRFSGSKSGTSASLAISGLRSEDEADYYCATWDDSLSGVVFGGGTKLTVL",65.6 nM
5,"YU392-E05 (antibody, Tested as full-length human IgG1) scFv: QVQLQESGPGLVKPSGTLSLTCTVSGGSISSSNWWSWVRQPPGKGLEWIGEIYHSGSTNYNPSLKSRVTISVDKSKNQFSLKLSSVTAADTAVYYCARGVIAAAGTYFDYWGQGTLVTVSSQAVLTQPPSASGTPGQRVTISCSGSRPNVASNSVNWYQQFPGTAPRLLIYSDNQRPSGVPDRFSGSKSGTSASLAISGLQFEDEADYYCETWDDSLRGVVFGGGTKVTVL",16.1 nM
6,"YU392-E06 (antibody, Tested as full-length human IgG1) scFv: QLQLQESGPGLVKPSGTLSLTCAVSGGSISSSNWWSWVRQPPGKGLEWIGEIYHSGSTNYNPSLKSRVTISVDKSKNQFSLKLSSVTAADTAVYYCARERTHYYYGMDIWGQGTTVTVSSQSVLTQPPSTSGTPGQRVTISCSGSSSNIGSNTVNWYHQLPGTAPRLLIYSNNQRPSGVPDRFSGSKSGTSASLALSGLQSEDEGDYYCAAWDDSLNGYVFGTGTKVTVL",8.3 nM
7,"YU389-A03 (antibody, Tested as full-length human IgG1) scFv: PSQTLSLTCTVSGGSISSGGYYWSWIRQHPGKGLEWIGYIYYSGSTYYNPSLKSRVTISVDTSKNQFSLKLSSVTAADTAVYYCARGNLWSGYYFWGQGTLVTVSSQSVLTQPPSVSAAPGQKVTISCSGSSSNIGNNFVSWYQQVPGTAPKLLTYDSTKRPAGIPDRFSGSKSGTSATLEIAGLQTGDEADYYCGSWDTNLSGYVFGTGTKVTVL",9.55 nM
8,"YU392-G09 (antibody, Tested as full-length human IgG1) scFv: QVQLVQSGAEVKKPGSSVKVSCKASGGTFSSYAISWVRQAPGQGLEWMGGIIPIFGTANYAQKFQGRVTITADESTSTAYMELSSLRSEDTAVYYCARDGAGNYDILTGDRSEDYYYYYGMDVWGQGTTVTVSSSYELTQPPSASGAPGQRVSISCSGGYSNIGSNTVNWYQQLPGAAPKFLIYSDNQRPSGVPDRFSGSKSGTSASLAISGLQSEDEADYYCATWDDSLNGPVFGGGTKLTVL",20.2 nM
9,"YU392-G12 (antibody, Tested as full-length human IgG1) scFv: QVQLQESGSGLVKPSQTLSLTCAVSGGSISSGGYSWSWIRQPPGKGLEWIGYIYHSGSTYYNPSLKSRVTISVDRSKNQFSLKLSSVTAADTAVYYCARAGYYYGMDVWGQGTTVTVSSDIVMTQTPSSLSASVGDRVAITCQASRNIWSYVNWYQQKPGEAPRLLIYGASTLQRGVPSRFSGSGSGTGFTLTINSLQPEDFATYFCQQSHSTPITFGGGTRVDIK",25.7 nM
10,"YU392-H02 (antibody, Tested as full-length human IgG1) scFv: QLQLQESGPGLVNLSQTLSLTCTVSGGSISSGGYYWSWIRQHPGKGLEWIGYIYYSGSTYYNPSLKSRVTISVDTSKNQFSLKLSSVTAADTAVYYCARDSSSGPYGMDVWGQGTTVTVSSQSVLTQPPSVSVAPGQTARVTCGGSNIGSQSVHWYQQKPGQAPVLVVYDDYDRPSGIPERFSGSNSGNTATLTITRVDAGDEADYYCQIWDSSSAHVVFGGGTKLTVL",10.6 nM
11,"YU392-H04 (antibody, Tested as full-length human IgG1) scFv: QVQLQESGPGLVKPSGTLSLTCAVSGGSISSSNWWSWVRQPPGKGLEWIGEIYHSGSTNYNPSLKSRVTISVDKSKNQFSLKLSSVTAADTAVYYCARVNYGDYDWYFDLWGRGTLVTVSSQPVLTQPPSASGTPGQRVTISCSGSSSNIGSNFVTWYQQLPGTAPKLLIYSNNQRPSGVSDRFSASKSGTSASLAISRLQSQDEAEYYCAAWDDSLRSYVFGSGTKVTVV",9.1 nM
12,"YU397-D01 (antibody, Tested as full-length human IgG1) scFv: PSGTLSLTCAVSGGSISSSNWWSWVRQPPGKGLEWIGEIYHSGSTNYNPSLKSRVTISVDKSKNQFSLKLSSVTAADTAVYYCARARGGRYFDYWGQGTLVTVSSDIVLTQSPSFLSASVGDRVTITCRASQGISTYLAWYQQKPGTAPKVLMYAASTLHSGVPSRFSGSGSGTEFTLTISSLQPEDFAIYYCQQLNGYPTTFGGGTRVEIK",3.86 nM
13,"YU398-A11 (antibody, Tested as full-length human IgG1) scFv: PGRSLRLSCAASGFTFSSYGMHWVRQAPGKGLEWVAVISYDGSNKYYADSVKGRFTISRDNSKNTLYLQMNSLRAEDTAVYYCAKGQGDGMDVWGQGTTVTVSSYELTQPPSASGTPGQRVTISCSGSSSNVGSRTVSWFQQLPGTAPKLLIYSNNLRPSGVPDRFSGSKSGTSASLAISGLQSEDEADYYCAAWDDSLIGHVFGTGTKVTVV",12.1 nM
14,"YU400-B07 (antibody, Tested as full-length human IgG1) scFv: PGRSLRLSCAASGFTFSSYGMHWVRQAPGKGLEWVAVISYDGSNKYYADSVKGRFTISRDNSKNTLYLQMNSLRAEDTAVYYCAKGDVNYGMDVWGQGTTVTVSSSYVLTQPPSVSVAPGKTARITCGGNNIGSKSVHWYQQKPGQAPVLVVYDDTDRPSGIPERFSGSNSGNTATLTISRVEAGDEADYYCQVWDSSSDLLWVFGGGTKLAVL",57.8 nM
15,"YU400-D09 (antibody, Tested as full-length human IgG1) scFv: PGSSVKVSCKASGGTFSSYAISWVRQAPGQGLEWMGGIIPIFGTANYAQKFQGRVTITADESTSTAYMELSSLRSEDTAVYYCARDFNPFSITIFEMDVWGQGTTVTVSSQSVLTQPPSVSAAPGQKVTISCSGSSSNIGNNYVSWYQQLPGTAPKLLIYDNNKRPSGIPDRFSGSKSGTSATLGITGLQTGDEADYYCGTWDSSLSALVFGGGTKLTVL",54.5 nM
16,"YU401-B01 (antibody, Tested as full-length human IgG1) scFv: PGSSVKVSCKASGGTFSSYAISWVRQAPGQGLEWMGGIIPIFGTANYAQKFQGRVTITADESTSTAYMELSSLRSEDTAVYYCAREMYYYYGMDVWGQGTTVTVSSDIVMTQSPSSLSASVGDRVTITCRASQSIITYLNWYQQKPGKVPKLLIYAASSLQSGVPSRFSGSGSGTDFTLTISSLQPEDFATYYCQQSYSTPPTFGQGTKLEIK",70.4 nM
17,"YU401-G07 (antibody, Tested as full-length human IgG1) scFv: LGRSLRLSCAASGFTFSSYGMHWVRQAPGKGLEWVAVISYDGSNKYYADSVKGRFTISRDNSKNTLYLQMNSLRAEDTAVYYCAKGDVNYGMDVWGQGTTVTVSSSYVLTQPPSVSVAPGQTARISCGGSNIGSKTVNWYRKKAGQAPVLVVYDGRDRPSGIPERFSGSNSGNAATLIISRVEVGDEADYYCQVWDTSGDLHWAFGGGTKLTVL",15.3 nM
